# Data as given in patent US20210371527A1 (published 2021).
# Like-named read-outs stand apart in the source and are kept apart here.
# Assays:
# [1] = biological target: T1, human CD4 on HPB-ALL cells (UniProt P01730 26-458); test: flow cytometry
# [2] = biological target: T1, human CD4 on HPB-ALL cells; test: flow cytometry; remark: listed apart in the source
EC50 [1] [nM],EC50 [2] [nM],Binder
3.05,–,"deferoxamine conjugated humanized IAB41-1 minibody (other, deferoxamine (Df) chelator conjugated; sites of conjugation not stated) EIVLTQSPATLSLSPGERATLSCSARSSVSYLYWYQQKPGQAPRLLIYDTSNLASGIPDRFSGSGSGTDFTLTISRLEPEDAAVYYCQQWSDYPLTFGGGTKLEIKGSTSGGGSGGGSGGGGSSQVQLVQSGAEVKKPGASVKVSCKASGYSFANYWMHWVRQAPGQRLEWIGALYPGNVDTTYNQKFQGRVTITRDTSASTAYMELSSLRSEDTAVYYCTRMGTTLEAPLDYWGQGTLVTVSSEPKSSDKTHTCPPCPPCGGGSSGGGSGGQPREPQVYTLPPSREEMTKNQVSLTCLVKGFYPSDIAVEWESNGQPENNYKTTPPVLDSDGSFFLYSKLTVDKSRWQQGNVFSCSVMHEALHNHYTQKSLSLSPG"
–,1.77,humanized IAB41-1 minibody (other) EIVLTQSPATLSLSPGERATLSCSARSSVSYLYWYQQKPGQAPRLLIYDTSNLASGIPDRFSGSGSGTDFTLTISRLEPEDAAVYYCQQWSDYPLTFGGGTKLEIKGSTSGGGSGGGSGGGGSSQVQLVQSGAEVKKPGASVKVSCKASGYSFANYWMHWVRQAPGQRLEWIGALYPGNVDTTYNQKFQGRVTITRDTSASTAYMELSSLRSEDTAVYYCTRMGTTLEAPLDYWGQGTLVTVSSEPKSSDKTHTCPPCPPCGGGSSGGGSGGQPREPQVYTLPPSREEMTKNQVSLTCLVKGFYPSDIAVEWESNGQPENNYKTTPPVLDSDGSFFLYSKLTVDKSRWQQGNVFSCSVMHEALHNHYTQKSLSLSPG
